Variants at the floor of the assay were thinned out.
B1: TPR 5TU (parent)
chain: GGAUCUUCUCGAUCUAACAAAAAAGACAAAUCUGCCACAAAGCUUGAGAGCAUCUUCGGAUGCAGAGGCGGCAGCCUUCGGUGGCGCGAUAGCGCCAACGUUCUCAACUAUGACACGCAAAACGCGUGCUCCGUUGAAUGGAGUUUAUCAUG

Variants of: B1
Experiment: polymerase ribozyme fitness, log enrichment relative to wild type (log ratio); higher = more active; in vitro selection for triplet polymerase activity
Procedure, shortened: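 A single round of triplicate in vitro selection, including frozen incubation at −7 °C, was applied to PCR-built, transcribed mutant libraries of each subunit of a heterodimeric triplet polymerase ribozyme. Illumina sequencing of input and output libraries retained genotypes with ≥10 input reads and ≥1 read per output. Fitness is the base-2 logarithm of genotype enrichment divided by wild-type enrichment, from inverse-variance-weighted replicate averages.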

Variant | polymerase ribozyme fitness (log ratio)
C27G C57U A91U C95A C131G U134G G140A | ≤ -4.2
U4A A20C A28C A29G C87A G141U | -4.08
A23G G86A G100A | ≤ -4.2
G58A C96U | 0.538
A19C U55G C96A C108G C116G A119C | ≤ -4.2
A30C U111G C129U G136U | ≤ -4.2
G62A G86A A122C | -1.02
A47C C57A G84A U101C | -0.765
C93G A107U | -4.14
A47U A89G C131A | ≤ -4.2
C93U A137G | -3.18
C57G U101A | 0.403
A3C A23U A41C C43U U61A A64C C96U A107C A115G | ≤ -4.2
U55A C95U | -0.137
U44A G58C G92C G141U C149A | ≤ -4.2
C116U U146A | -0.753
G84A G88A U148G | ≤ -4.2
A20G C36U A119U A120C C129U A142G | -4.1
A17G G50U C95U G124C G141A | -0.476
U82C A115G A138U | -4.19
G11A U55A A73G | -1.2
A16C A24G A47C C85G A97C A120G | ≤ -4.2
A37G C51U | -2.54
U101G U134A U144C A150U | -4.09

Variant | polymerase ribozyme fitness (log ratio)
U61C C87A | ≤ -4.2
G58C G94A | -0.64
A23U G46U G67U C96G U146G U151A | ≤ -4.2
A26G G88C A91C C93A C116U | ≤ -4.2
U7A U61A G62A G71C C103G | ≤ -4.2
A73G C95G C96U G124U C149U G152A | ≤ -4.2
C38A G50C C96A | -4.12
A23C G141C | -3.64
U55A C57G A89U G136C | -3.69
U53C C57G U61A G124A G128U | -4.14
U13C A66U G88A A91U | ≤ -4.2
C10U A20U C57A U145C | -3.45
C5G C93A | -2.55
A24C G34A C96G G117C U135G U139A U145A | ≤ -4.2
A106G A120U A121G A122G G143C | -2.43
G84A A115U G126A | -4.17
A26U U134A | -3.96
A21U C76G | ≤ -4.2
C38G G86U C118U | -2
U7G A20C U56G U146G | -3.82
U13G C85U A106G G126U G140C | -3.96
A37G C38G G83U C118A C123U | -4.05
A40U C95U C129A U134C | -3.65
A52G C57A A73U | -0.666

Variant | polymerase ribozyme fitness (log ratio)
A60U C131G | -3.54
G50C A89G C99U A122G | ≤ -4.2
U13C C54G C95G | -3.76
A29C G42U C54G C93G G94C A98U G136A A142G G152U | ≤ -4.2
U6A U13A C35G A110G A142G | -3.55
C35G C95G A97C C114G G124A A138G | ≤ -4.2
A17G C27U A49U C79A G83U C87U A120U | ≤ -4.2
A23U A28G U55A G59A U78G G128A | -3.79
C5A C54U A73G A119G G136A | -0.371
G11U A23U C32U C57U G58A U77C C93G C96U A97U G100U A110U G143C | ≤ -4.2
U56A C57A C85U C87U U144A U146G | ≤ -4.2
A39U C43U U61A U135G G136A | ≤ -4.2
A3U C38U C96U G126U G143A | ≤ -4.2
A49G G117U | -0.367
C38U U53A U61A | -1.44
C75G C87A | -3.89
G58C C85A | -3.71
C27A C85A | ≤ -4.2
A12G U55A C76A C93A A120G | -3.73
A12C C93A | -2.68
G88U C95U A121U A122G G124A | ≤ -4.2
C14U A28U A52C G88U A91G C96U U134G G140U | ≤ -4.2
U4A C8G U13G A24C C96U | ≤ -4.2
C14G C35A G42C A66G C96G G117U | ≤ -4.2

Variant | polymerase ribozyme fitness (log ratio)
A12U C118U A119C G136A G143C | -3.19
C76A G143U | -3.02
A41C U144C A147U | -0.619
U15A G50A U109G A110G | ≤ -4.2
G92U C103U G136U | -3.43
C93A A97G | -3.37
A47U A49G A98G U101A | ≤ -4.2
A97U U134G | -2.5
A64G C99A | -3.82
A22U A24C A40U U55A C85A G117C G136U A138C | ≤ -4.2
U15G G50A U53A A73U C87A A113C G140U | ≤ -4.2
C36U A49U U82A A107C G133C | ≤ -4.2
A3G A16C A26C U45A G59C G86C U130G U145G | ≤ -4.2
U44G G136A | -3.71
A89U C99G A142U | -2.38
C54U G68U U82A G94A A97C G117A A138C G141A | ≤ -4.2
A49C G65U G84U C96U A121U C125G | ≤ -4.2
A22U A24G U31A U56G C79U U90G C95U A97C A120U C125G | ≤ -4.2
A40U C57U U61A U82G A98C A106U C116U A121U C132U A138C | ≤ -4.2
C8G A16C G25U A37C G59C A64U C87A G92C | ≤ -4.2
C5A C27A C87A U109A G126A | ≤ -4.2
C125A U134C U148A G152A | -4.13
C54G C95G A107U C108G G143A U145C | ≤ -4.2
C14G C35G U82G G92A C96A G100A C116G A120G G141A U144A | ≤ -4.2

Variant | polymerase ribozyme fitness (log ratio)
C38G U55A C96A A150G | -2.63
U78A G133A U139G | ≤ -4.2
A16G G86U C132U U135G | ≤ -4.2
G74C G83A C95U G136A | ≤ -4.2
G94A U101G U148A | -4.03
A17C C35U G86A A122G | -1.01
C5G A30U G59A C87G C108U U148A | ≤ -4.2
A20C A52U G68C G84A U134C | ≤ -4.2
G86A U139G | -1.36
G25U A49C G88U A97G | ≤ -4.2
C87U C118U | -0.642
U7A C27A G59U G83A G94A C103G | ≤ -4.2
G50C G83A | -3.65
A16C C85U | -1.75
C14A G68U C76A C99U G100A | ≤ -4.2
C54U G86C | -3.47
C8U C10G C35G C57A A66U G86U U134C U139C U148A | ≤ -4.2
U53G C76A U134A | ≤ -4.2
U61G G71U C87U G143A | ≤ -4.2
A16U A22U C38U C85U | -2.73
A52U U53G G88C A91C | ≤ -4.2
A20C C27U C87U G92A U101A | -1.49
A26U U31C A39U U90C | ≤ -4.2
C63G A98U C99U | 0.639

Variant | polymerase ribozyme fitness (log ratio)
A98U A120U G143C | -2.39
U13G U33G C54U | ≤ -4.2
G88U U127C | -4.15
U7G C35U U45A A52U G59A C93G G128A G141C | ≤ -4.2
A12G U53A | -0.69
A16C C27A A30U C38G G48U G86U A110U C116G G141A | -4.02
A16U C27G A89G G92U C149G | ≤ -4.2
A40U U55G C96G | -0.541
G25C A52C G84U | ≤ -4.2
U82C A115G | -0.965
C5A U9C C10G A26U U90G A137G A142U | ≤ -4.2
A22U G84U | -1.67
G50C A73U G80A G81U C95A G100U U151C | ≤ -4.2
G62C C72U C85U C108U | ≤ -4.2
A40U U82A C95G | -1.43
A12U A40C G92A C118G | -3.87
C99A C131G | ≤ -4.2
U9G C96U A97G C103G A115U U127A | ≤ -4.2
C54U U90C G94A C131U | ≤ -4.2
C93A A150C | -3.74
C54G U146G | -2.99
A41U U82C C87U C125G G126C U144G | -2.6
A41U C114A | -4.16
U55G G83U C95U A147C | -1.88

Variant | polymerase ribozyme fitness (log ratio)
G42C A52C A64G G80A C96A C108U A110G | ≤ -4.2
U45C A52G C57A G92C | -2.64
A17U C96A | -0.735
C43G U44A G58A G88U C95U U135G | ≤ -4.2
A20C U55A A110G | -3.9
A39C G80U C114U | ≤ -4.2
G71U G80C C95U U127A | -3.97
A37C C96U | -1.09
G25A C72U G80U C93A C114U | ≤ -4.2
C85G U134A | -3.86
U9G U55A C96G C116A | -4.14
A40G U55G U56A G88C | ≤ -4.2
C8G A24U G25U G80A C96G C125A | ≤ -4.2
A16G A49U G62A G92A C96A | ≤ -4.2
C114U U139C | -3.63
A17G A37U C87U C99A C123U | -3.98
U31G G84A A89G | -0.747
A21G C54A G83U C87A C96U A122C | ≤ -4.2
G94C | -0.474
C69A G70C | -3.18
A21C U53G C87A C95A C149G | ≤ -4.2
C76A C87G C93U | ≤ -4.2
A73G U77G C103G G136U | ≤ -4.2

— the RNAGym collection of RNA variant scans (doi:10.1073/pnas.2313332121)
